We go through 1 molecule from doi:10.1101/2023.06.17.545410 (bioRxiv, 2023).

This test has as its target T1, HsTHUMPD2 (purified) (human, UniProt Q9BTF0-1 1-503).
T1 sequence (looked up): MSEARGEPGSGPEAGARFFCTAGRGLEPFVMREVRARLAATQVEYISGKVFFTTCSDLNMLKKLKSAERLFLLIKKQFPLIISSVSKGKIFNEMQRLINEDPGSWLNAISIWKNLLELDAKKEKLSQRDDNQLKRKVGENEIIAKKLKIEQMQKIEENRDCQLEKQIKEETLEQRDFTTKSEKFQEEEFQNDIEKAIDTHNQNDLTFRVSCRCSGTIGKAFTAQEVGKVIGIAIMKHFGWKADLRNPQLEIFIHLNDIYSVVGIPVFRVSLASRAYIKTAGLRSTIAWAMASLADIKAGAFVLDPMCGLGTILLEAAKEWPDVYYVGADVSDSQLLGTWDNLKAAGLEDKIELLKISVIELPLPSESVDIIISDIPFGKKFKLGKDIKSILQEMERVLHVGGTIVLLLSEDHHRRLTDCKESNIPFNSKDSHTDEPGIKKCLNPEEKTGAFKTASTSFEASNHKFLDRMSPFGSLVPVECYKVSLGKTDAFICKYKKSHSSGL
The test can be described thus: SEC. (In general: SEC sorts molecules by how far they enter the pores of the column.)

B1: HsTRMT112 (purified) (natural protein, human, UniProt Q9UI30-1 1-125, looked up)
chain: MKLLTHNLLSSHVRGVGSRGFPLRLQATEVRICPVEFNPNFVARMIPKVEWSAFLEAADNLRLIQVPKGPVEGYEENEEFLRTMHHLLLEVEVIEGTLQCPESGRMFPISRGIPNMLLSEEETES
For the molecule B1, the binding result is on record as “binds”.
